Data reported in IntAct's records for PubMed 28325809.

B1: ADP-ribosylation factor-like protein 8B (Homo sapiens), Q9NVJ2 (parent)
chain: MLALISRLLDWFRSLFWKEEMELTLVGLQYSGKTTFVNVIASGQFSEDMIPTVGFNMRKVTKGNVTIKIWDIGGQPRFRSMWERYCRGVNAIVYMIDAADREKIEASRNELHNLLDKPQLQGIPVLVLGNKRDLPNALDEKQLIEKMNLSAIQDREICCYSISCKEKDNIDITLQWLIQHSKSRRS
B2: Pleckstrin homology domain-containing family M member 1 (Homo sapiens), Q9Y4G2 (parent)
chain: MLSVVENGLDPQAAIPVIKKKLVGSVKALQKQYVSLDTVVTSEDGDANTMCSALEAVFIHGLHAKHIRAEAGGKRKKSAHQKPLPQPVFWPLLKAVTHKHIISELEHLTFVNTDVGRCRAWLRLALNDGLMECYLKLLLQEQARLHEYYQPTALLRDAEEGEFLLSFLQGLTSLSFELSYKSAILNEWTLTPLALSGLCPLSELDPLSTSGAELQRKESLDSISHSSGSEDIEVHHSGHKIRRNQKLTASSLSLDTASSSQLSCSLNSDSCLLQENGSKSPDHCEEPMSCDSDLGTANAEDSDRSLQEVLLEFSKAQVNSVPTNGLSQETEIPTPQASLSLHGLNTSTYLHCEAPAEPLPAQAASGTQDGVHVQEPRPQAPSPLDLQQPVESTSGQQPSSTVSETAREVGQGNGLQKAQAHDGAGLKLVVSSPTSPKNKSWISEDDFYRPSREQPLESASDHPIASYRGTPGSRPGLHRHFSQEPRKNCSLGALDQACVPSPGRRQAQAAPSQGHKSFRVVHRRQMGLSNPFRGLMKLGTVERRGAMGIWKELFCELSPLEFRLYLSNEEHTCVENCSLLRCESVGPAHSDGRFELVFSGKKLALRASSQDEAEDWLDRVREALQKVRPQQEDEWVNVQYPDQPEEPPEAPQGCLSPSDLLSEPAALQGTQFDWSSAQVPEPDAIKESLLYLYMDRTWMPYIFSLSLEALKCFRIRNNEKMLSDSHGVETIRDILPDTSLGGPSFFKIITAKAVLKLQAGNAEEAALWRDLVRKVLASYLETAEEAVTLGGSLDENCQEVLKFATRENGFLLQYLVAIPMEKGLDSQGCFCAGCSRQIGFSFVRPKLCAFSGLYYCDICHQDDASVIPARIIHNWDLTKRPICRQALKFLTQIRAQPLINLQMVNASLYEHVERMHLIGRRREQLKLLGDYLGLCRSGALKELSKRLNHRNYLLESPHRFSVADLQQIADGVYEGFLKALIEFASQHVYHCDLCTQRGFICQICQHHDIIFPFEFDTTVRCAECKTVFHQSCQAVVKKGCPRCARRRKYQEQNIFA

How the values were obtained:
[1] = variants of: B1; conditions: with pkhm1_human PLEKHM1, Q9Y4G2
[2] = variants of: B2; conditions: with arl8b_human ARL8B
[3] = variants of: B2; conditions: with rab7a_human RAB7A
[4] = variants of: B2; conditions: with arl8b_human ARL8B; remark: listed apart in the source
[5] = variants of: B2; conditions: with mlp3b_human MAP1LC3B
[6] = variants of: B2; conditions: with mlp3b_rat Map1lc3b

| effect of a mutation on the interaction [1] | effect of a mutation on the interaction [2] | effect of a mutation on the interaction [3] | effect of a mutation on the interaction [4] | effect of a mutation on the interaction [5] | effect of a mutation on the interaction [6] | Variant |
| --- | --- | --- | --- | --- | --- | --- |
| disrupting interaction strength |  |  |  |  |  | T34N |
| with no effect |  |  |  |  |  | Q75L |
|  | disrupting interaction strength | with no effect | decreasing interaction strength |  |  | H60A |
|  | disrupting interaction strength | with no effect | decreasing interaction strength | disrupting interaction strength | disrupting interaction strength | H60A;R117A;R119A |
|  | disrupting interaction strength | with no effect | with no effect |  |  | H63A |
|  | disrupting interaction strength | with no effect | decreasing interaction strength |  |  | R117A;R119A |
|  | disrupting interaction strength | with no effect |  |  |  | R123A |
